These results are taken from PMC6960015 (Nature cell biology, 2019).

The target in this assay is Rabbit skeletal muscle LatB-actin (rabbit, UniProt P68135 1-377). As to the kind of experiment: BLI.

B1: GST-ArhGAP12 ΔNΔP (568-791) (domain or fragment)
chain: QKKTKKNLKKFLTRRPTLQAVREKGYIKDQVFGSNLANLCQRENGTVPKFVKLCIEHVEEHGLDVDGIYRVSGNLAVIQKLRFAVNHDEKLDLNDSKWEDIHVITGALKMFFRELPEPLFTFNHFNDFVNAIKQEPRQRVTAVKDLIRQLPKPNQDTMQILFRHLKRVIENGEKNRMTYQSIAIVFGPTLLKPERETGNIAVHTVYQNQIVELILLELSTVFGR
What is called Kd is the constant that tells how readily two partners part at equilibrium. A high value points to weaker binding. With B1, the affinity, expressed as Kd, was 40.3 nM.
